Positions count from the first letter of the chain named.
B1: hu.Ab4.H1L1 (antibody, human IgG1, kappa)
heavy: not shown
light: DYQMTQSPSSLSASVGDRVTITCQASQSISSYLSWYQQKPGKRPKLLIYKASTLASGVPSRFSGSGSGTDFTLTISSLQPEDFATYYCQQGYTSSNIDNIFGGGTKVEIKRTVAAPSVFIFPPSDEQLKSGTASVVCLLNNFYPREAKVQWKVDNALQSGNSQESVTEQDSKDSTYSLSSTLTLSKADYEKHKVYACEVTHQGLSSPVTKSFNRGEC
notes: also called hu.Ab4.H1Ll
B2: hu.Ab4.H12L3 (antibody, human IgG1, kappa)
heavy: not shown
light: B1 light with R43A
notes: fucosylated human IgG1; also called huCCR8-Ab4.H12L3.hIgG1; Ab4 variant
B3: hu.Ab5.H1L1 (antibody, human IgG1, kappa)
heavy: not shown
light: DIQVTQSPSSLSASVGDRVTITCQASENIANALAWYQQKPGKPPKFLIYGASNLASGVPSRFSGSGSGTDFTFTISSLQPEDIATYYCQQAYYGNSFVEGTFGGGTKVEIKRTVAAPSVFIFPPSDEQLKSGTASVVCLLNNFYPREAKVQWKVDNALQSGNSQESVTEQDSKDSTYSLSSTLTLSKADYEKHKVYACEVTHQGLSSPVTKSFNRGEC
B4: hu.Ab5.H13L1 (antibody, human IgG1, kappa)
heavy: not shown
light: B3 light
notes: fucosylated human IgG1; also called Ab5 variant

Key:
human CCR5 [1] = target: T1, human CCR5 (human, UniProt P51681 1-352); assay: flow cytometry, HEK293 with N-term FLAG-tagged human CCR5
T1 construct: whole, on cells; transiently expressed on HEK293 cells
Excerpt: (§1) FIGS. 4A-4F depicts the binding data of hu.Ab3.H1L1 (FIG. 4A), hu.Ab4.H1L1 (FIG. 4B), and hu.Ab5.H1L1 (FIG. 4C), as well as the commercial anti-CCR8 mAbs murine anti-human CCR8 mAb 433H (BD Biosciences) (FIG. 4D), and murine anti-human CCR8 mAb L263G8 (Biolegend) (FIG. 4E), and the humanized anti-human Yoshida anti-CCR8 mAb (FIG. 4F), to HEK293 cells that were transiently transfected with N-term FLAG-tagged plasmids encoding for human GPCRs (CCR2, CCR3, CCR4, CCR5, CCR8, CXCR4, ACKR2, and ACKR4), hCCR8 constructs, or with a mock construct using transIT X2 (reagent:DNA=3:1).
(§2) To confirm the selectivity to CCR8, the binding of hu.Ab3.H1L1, hu.Ab4.H1L1, and hu.Ab5.H1L1, as well as the Yoshida humanized anti-human CCR8, murine anti-human CCR8 mAb L263G8 (Biolegend, Commercial Ab) and murine anti-human CCR8 mAb 433H (BD Biosciences, Commercial Ab), were characterized by flow cytometry on HEK293 cells that were transiently transfected with plasmids encoding for FLAG-tagged other related human GPCRs (CCR2-5, CXCR4, ACKR2, and ACKR4). Cell surface expression of each GPCR was confirmed by staining with an anti-FLAG antibody control. […]

human CXCR4 = target: T2, human CXCR4 (human, UniProt P61073 1-352); assay: flow cytometry, HEK293 with N-term FLAG-tagged human CXCR4
T2 construct: whole, on cells; transiently expressed on HEK293 cells
Excerpt: as §1, §2

cyno CCR8 = target: T3, cyno CCR8 (cynomolgus monkey, UniProt O97665 1-356 (rhesus entry)); assay: radioligand competition on CHO cells stably expressing cyno CCR8: fixed 125I-anti-CCR8 against serially diluted unlabelled antibody
T3 construct: also called cynomolgus monkey CCR8
Protocol: Cell-based affinity measurements were performed using radiolabeled IgGs and CHO cell lines stably expressing human or cyno CCR8 for hu.Ab5.H13L1 and hu.Ab4.H12L3.
Briefly, stable CHO cells expressing human or cyno CCR8 were seeded in cold binding buffer (Opti-MEM+2% FBS+50 mM HEPES, pH 7.2+0.1% Sodium Azide) at 50,000 cells per well. A fixed concentration of ¹²⁵I-anti-CCR8 radiolabeled using the NEX244 Iodogen method (Perkin Elmer) was mixed with serially diluted anti-CCR8 antibodies starting at 20 nM or 50 nM. The antibody mixture was added to the cells and incubated at room temperature for 12 hours under gentle agitation. The cells and antibodies were then transferred to Millipore multiscreen filter plates. The filter plates were washed 4 times with 250 μL of cold binding buffer and dried for at least 30 minutes and the filters were punched into 5 mL polystyrene tubes. The radioactivity was measured using a Perkin Elmer Wallac Wizard 2470 Gamma Counter set at 1 count per minute with 0.8 counting efficiency. The data were fitted using the heterologous one site-fit Ki competitive binding model in GraphPad Prism.

GST-FcgR3a.V158 = target: T4, GST-FcgR3a.V158 (UniProt P08637 17-208, limits assumed); assay: ELISA, GST-FcgR3a.V158 captured by anti-GST antibody
T4 construct: Captured by anti-GST antibody on ELISA plate; also called FcgR3a.V158 protein; Fcgamma RIIIa V158; not shown: GST tag
Protocol: The binding of fucosylated and afucosylated variants of hu.Ab5.H13L1 and hu.Ab4.H12L3 to both FcgR3a proteins by ELISA was studied. Briefly, an anti-GST antibody was coated on Nunc Maxisorp plates. GST-FcgR3a.V158 and GST-FcgR3a.F158 were captured at 500 ng/mL. Plates were then washed and then serially diluted anti-CCR8 antibodies starting at 100 ug/mL were incubated on the plate for 1 hour at room temperature. Plates were washed and bound antibody was detected by a HRP-conjugated anti-human IgG secondary antibody. Absorbance at 450 nm was measured by a plate reader. The data were fitted using a 4-parameter logistic curve in Softmax Pro.

human CCR5 [2] = target: T1, human CCR5; assay: flow cytometry, HEK293 with N-term FLAG-tagged human CCR5, procedure of FIG. 4
Excerpt: (§3) To confirm the selectivity to CCR8, the binding of hu.Ab3.H1L1, hu.Ab4.H1L1, and hu.Ab5.H1L1, as well as the Yoshida humanized anti-human CCR8, murine anti-human CCR8 mAb L263G8 (Biolegend, Commercial Ab) and murine anti-human CCR8 mAb 433H (BD Biosciences, Commercial Ab), were characterized by flow cytometry on HEK293 cells that were transiently transfected with plasmids encoding for FLAG-tagged other related human GPCRs (CCR2-5, CXCR4, ACKR2, and ACKR4). Cell surface expression of each GPCR was confirmed by staining with an anti-FLAG antibody control. In particular, HEK293 cells were transfected with N-term FLAG-tagged human CCR2, CCR3, CCR4, CCR5, CXCR4, ACKR2, ACKR4, hCCR8 constructs, or with a Mock construct using transIT X2 (reagent:DNA=3:1) for 24 hours, and surface stained with various anti-hCCR8 monoclonal antibodies at 5 ug/ml, or rabbit anti-Flag pAb (Sigma) followed by AF647-anti-hIgG or AF647-anti-RbIgG respectively. Antibodies hu.Ab4.H1L1, and hu.Ab5.H1L1, only stained the hCCR8-containing cells, confirming their specificity to hCCR8. […] Thus, the CCR8 selective hu.Ab4.H1L1 and hu.Ab5.H1L1 antibodies with the best ADCC activities were carried forward.
(§4) To reconfirm that the Ab4 and Ab5 variants remained selective to CCR8 compared to the corresponding HIL1 variants, binding was analyzed by flow cytometry following the procedure as described for FIG. 4A and FIG. 4B. […]

human CCR3 = target: T5, human CCR3 (human, UniProt P51677 1-355); assay: flow cytometry, HEK293 with N-term FLAG-tagged human CCR3, procedure of FIG. 4
T5 construct: whole, on cells; transiently expressed on HEK293 cells
T5 sequence (looked up): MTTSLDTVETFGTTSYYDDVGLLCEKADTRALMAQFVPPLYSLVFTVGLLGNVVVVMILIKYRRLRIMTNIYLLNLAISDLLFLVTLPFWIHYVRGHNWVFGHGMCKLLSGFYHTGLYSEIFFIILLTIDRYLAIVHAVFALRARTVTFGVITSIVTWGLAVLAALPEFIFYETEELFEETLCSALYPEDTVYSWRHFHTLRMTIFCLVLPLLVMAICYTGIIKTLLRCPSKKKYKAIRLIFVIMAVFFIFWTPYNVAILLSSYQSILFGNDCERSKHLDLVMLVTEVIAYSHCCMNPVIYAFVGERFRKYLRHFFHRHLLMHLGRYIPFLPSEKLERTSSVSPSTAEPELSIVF
Excerpt: as §3, §4

T1 sequence (P51681 whole entry): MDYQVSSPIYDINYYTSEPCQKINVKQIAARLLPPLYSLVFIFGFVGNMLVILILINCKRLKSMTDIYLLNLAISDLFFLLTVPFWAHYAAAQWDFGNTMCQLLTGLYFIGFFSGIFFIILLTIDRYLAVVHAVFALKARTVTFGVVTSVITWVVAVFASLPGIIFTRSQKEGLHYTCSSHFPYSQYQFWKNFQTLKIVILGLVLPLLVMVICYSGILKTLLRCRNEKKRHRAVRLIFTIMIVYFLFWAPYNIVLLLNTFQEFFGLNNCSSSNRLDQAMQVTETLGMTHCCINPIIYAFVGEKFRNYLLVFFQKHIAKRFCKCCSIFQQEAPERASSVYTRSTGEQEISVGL
T4 sequence (P08637 17-208 F176V limits assumed): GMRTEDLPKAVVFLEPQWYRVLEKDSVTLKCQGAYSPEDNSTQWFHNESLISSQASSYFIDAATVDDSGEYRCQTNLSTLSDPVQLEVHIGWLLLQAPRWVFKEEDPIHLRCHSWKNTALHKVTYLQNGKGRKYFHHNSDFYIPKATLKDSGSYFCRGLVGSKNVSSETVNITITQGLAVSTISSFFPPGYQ
T3 sequence (O97665 other isoform, or with tags, fused parts or gaps): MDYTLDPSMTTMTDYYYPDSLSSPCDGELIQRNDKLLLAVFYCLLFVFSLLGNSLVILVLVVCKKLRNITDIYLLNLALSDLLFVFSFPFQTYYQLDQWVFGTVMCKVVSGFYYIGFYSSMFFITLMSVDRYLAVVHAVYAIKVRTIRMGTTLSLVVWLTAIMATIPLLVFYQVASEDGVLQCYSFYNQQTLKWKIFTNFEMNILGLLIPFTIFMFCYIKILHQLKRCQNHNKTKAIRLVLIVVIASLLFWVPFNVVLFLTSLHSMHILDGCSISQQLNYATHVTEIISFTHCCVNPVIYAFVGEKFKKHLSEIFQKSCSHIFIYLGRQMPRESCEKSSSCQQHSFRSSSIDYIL
T2 sequence (P61073 whole entry): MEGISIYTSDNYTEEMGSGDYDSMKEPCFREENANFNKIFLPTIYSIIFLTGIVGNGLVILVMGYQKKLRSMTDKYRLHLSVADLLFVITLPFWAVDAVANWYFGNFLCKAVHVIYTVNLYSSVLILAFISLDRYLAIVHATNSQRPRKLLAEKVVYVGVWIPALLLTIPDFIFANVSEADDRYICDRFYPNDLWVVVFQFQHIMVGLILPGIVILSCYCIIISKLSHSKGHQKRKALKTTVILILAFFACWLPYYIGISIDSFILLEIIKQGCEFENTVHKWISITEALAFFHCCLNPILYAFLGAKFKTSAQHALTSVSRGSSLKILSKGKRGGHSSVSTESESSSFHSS

Binder	binding result (human CCR5 [1])	binding result (human CXCR4)	IC50 (read off the curve) (cyno CCR8) [nM]	EC50 (GST-FcgR3a.V158) [µg/mL]	binding result (human CCR5 [2])	binding result (human CCR3)
B1	no binding (tested: 5 ug/ml)	no binding (tested: 5 ug/ml)				
B2			~0.1	0.388	no binding (tested: 5 ug/ml)	no binding (tested: 5 ug/ml)
B3	no binding (tested: 5 ug/ml)	no binding (tested: 5 ug/ml)				
B4			~0.05	0.39	no binding (tested: 5 ug/ml)	no binding (tested: 5 ug/ml)

Reference: patent US20230049152A1 (Genentech, published 2023)
